Source: ChEMBL document CHEMBL2074046, “Selectivity of the polyspecific cation transporter rOCT1 is changed by mutation of aspartate 475 to glutamate” (Mol Pharmacol, 1999)

Tests used:
[1] = molecular target: T1, Solute carrier family 22 member 1 (Rattus norvegicus, UniProt Q63089); assay: TP_TRANSPORTER: inhibition of MPP+ uptake (MPP+: 0.1 uM) in OCT1-expressing HEK293 cells; format: functional, cell-based
T1 sequence (Q63089 whole entry): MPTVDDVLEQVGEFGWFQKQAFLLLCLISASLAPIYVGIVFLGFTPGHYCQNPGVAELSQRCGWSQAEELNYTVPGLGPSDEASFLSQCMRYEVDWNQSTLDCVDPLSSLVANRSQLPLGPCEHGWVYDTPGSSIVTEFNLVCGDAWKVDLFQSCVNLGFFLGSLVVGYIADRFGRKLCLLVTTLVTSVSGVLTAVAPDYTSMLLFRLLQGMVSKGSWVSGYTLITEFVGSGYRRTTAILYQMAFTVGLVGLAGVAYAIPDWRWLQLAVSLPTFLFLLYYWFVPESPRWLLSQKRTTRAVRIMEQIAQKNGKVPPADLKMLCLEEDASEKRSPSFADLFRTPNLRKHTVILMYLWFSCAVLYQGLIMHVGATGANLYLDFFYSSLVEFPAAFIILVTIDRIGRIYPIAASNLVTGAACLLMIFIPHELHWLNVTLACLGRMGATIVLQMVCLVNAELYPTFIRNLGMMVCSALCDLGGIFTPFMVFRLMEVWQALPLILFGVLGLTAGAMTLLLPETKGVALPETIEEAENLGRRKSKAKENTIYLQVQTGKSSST

[2] = molecular target: T1, Solute carrier family 22 member 1
[3] = substrate: C[N+](C)(C)CCO; assay: cells, lysate or membranes named
[4] = substrate: CC[N+](CC)(CC)CC; assay: cells, lysate or membranes named
[5] = substrate: C[n+]1ccc(-c2ccccc2)cc1; assay: TP_TRANSPORTER: uptake in OCT1-expressing HEK293 cells; format: functional, cell-based
[6] = substrate: C[n+]1ccc(-c2ccccc2)cc1; assay: (§1) TP_TRANSPORTER: uptake in Xenopus laevis oocytes; format: functional, cell-based, Oocyte
[7] = substrate: CNC(=O)c1cccnc1; assay: as §1; format: functional, cell-based, Oocyte

Molecule: CCCCC[N+](CCCCC)(CCCCC)CCCCC [TETRAPENTYLAMMONIUM]
- IC50 [1]: 0.18 µM

Molecule: CCCC[N+](CCCC)(CCCC)CCCC [TETRABUTHYLAMMONIUM]
- IC50 [2]: 3 µM

B1: Solute carrier family 22 member 1 (Rattus norvegicus) (protein)
chain: MPTVDDVLEQVGEFGWFQKQAFLLLCLISASLAPIYVGIVFLGFTPGHYCQNPGVAELSQRCGWSQAEELNYTVPGLGPSDEASFLSQCMRYEVDWNQSTLDCVDPLSSLVANRSQLPLGPCEHGWVYDTPGSSIVTEFNLVCGDAWKVDLFQSCVNLGFFLGSLVVGYIADRFGRKLCLLVTTLVTSVSGVLTAVAPDYTSMLLFRLLQGMVSKGSWVSGYTLITEFVGSGYRRTTAILYQMAFTVGLVGLAGVAYAIPDWRWLQLAVSLPTFLFLLYYWFVPESPRWLLSQKRTTRAVRIMEQIAQKNGKVPPADLKMLCLEEDASEKRSPSFADLFRTPNLRKHTVILMYLWFSCAVLYQGLIMHVGATGANLYLDFFYSSLVEFPAAFIILVTIDRIGRIYPIAASNLVTGAACLLMIFIPHELHWLNVTLACLGRMGATIVLQMVCLVNAELYPTFIRNLGMMVCSALCDLGGIFTPFMVFRLMEVWQALPLILFGVLGLTAGAMTLLLPETKGVALPETIEEAENLGRRKSKAKENTIYLQVQTGKSSST
- Km [3]: 370 µM
- Km [4]: 129 µM
- Km [5]: 9.4 µM
- Km [6]: 2.7 µM
- Km [7]: 126 µM
